Where “and” joins values, the source holds several entries; their conditions need not be identical. Identical values can stand only once. Entries after “also recorded” stand apart in the source; their conditions may differ.

This is an account of results in patent US20210063414A1, “METHODS FOR PREVENTING AND/OR TREATING BONE LOSS CONDITIONS BY MODULATING IRISIN” (Dana-Farber Cancer Institute, Inc., priority 2018, published 2021).

Data set [1] in a line: Half-life of recombinant his-tag irisin in vivo, plasma immunoblot against his-tag. Conditions: C57BL/6 mice, 1 mg/kg I.P. The method, then:
C57BL/6 mice were injected with irisin (1 mg/kg, I.P.) or sterilized PBS and blood was collected at indicated time point. Irisin in plasma was detected using immunoblot analysis against his-tag.
For orientation: In western blotting, separated proteins are transferred to a membrane and probed.

The next data set relates to MLO-Y4 cells. In words: Anti-apoptosis assay: H2O2-induced cell death of MLO-Y4 osteocytes. Format: cell-based. The procedure: Cells were stained with Hoechst 33342 and Eth-D1, and analyzed to determine the percentage of cell death. *: p<0.05, ***: p<0.001 vs 0.3 mM H2O2 treated condition. […] MLO-Y4 cells were seeded and incubated until 60% cell density. The cells were incubated with Freestyle293 medium for 4 hours and were treated with indicated concentrations of irisin for 16 hours. Sclerostin mRNA level was analyzed by qRT-PCR. Cyclophilin was used as a control house-keeping gene.
Certain materials and methods were used to generate the results described herein. […] Cells were stained with Hoechst 33342 (ThermoFisher Scientific, catalog number H3570) and Eth-D1 (ThermoFisher Scientific, catalog number E1169) and analyzed to determine the percentage of cell death using ImageJ. […] Co-precipitated irisin was analyzed by immunoblot analysis against flag tag (Sigma Aldrich, catalog number A8592). The data shown in FIGS. 5A and 5B were generated from MLO-Y4 cells treated and analyzed as in the experiments used to generate the data shown in FIG. 2D, except that pre-treatment of 100 nM RGDS (FIG. 5A) or echistatin (R & D Systems Inc., catalog number 3202/100U) (FIG. 5B) for 10 minutes was performed before irisin treatment. […] Sclerostin mRNA level was analyzed by qPCR (FIG. 7A). […] Epididymal fats were collected, RNAs were extracted from the tissues, and mRNA levels of the indicated genes were analyzed by qPCR. […]

The next data set relates to integrin αV/β5. In words: Protein-protein binding assay: irisin with his-tag integrins, Ni-NTA co-precipitation and immunoblot. Also noted: species or system murine and human. Conditions: 100 nM irisin, 5 nM his-tag integrin. The method, then: 100 nM irisin was incubated with 5 nM indicated his-tag integrins followed by immunoprecipitation using Ni-NTA agaroses. Precipitated integrins and co-precipitated irisin were analyzed by immunoblot analysis. […] HEK293T cells were seeded and incubated until 50% cell density. The cells were transfected with 0.1 μg plasmids of indicated integrins. After 48 hours, the cells were incubated with Freestyle293 medium for 3 hours and were treated with indicated concentration of irisin for 5 minutes. Cells were lysed to detect the indicated protein level using immunoblot analysis. […] Sclerostin mRNA level was analyzed by qRT-PCR. […]
100 nM irisin was incubated with 5 nM indicated his-tag integrins followed by immunoprecipitation using Ni-NTA agaroses. Precipitated integrins and co-precipitated irisin were analyzed by immunoblot analysis. […] Cells were treated and analyzed as FIG. 14B except using plasmids encoding integrin α5/β1 or integrin α11/β1 (FIG. 15C) integrin αV/β1(FIG. 15D).
100 nM flag-tagged mammalian irisin was incubated with 5 nM of the indicated his-tag integrins in a final volume of 600 μl in 1.5 ml Protein LoBind Tubes (Eppendorf®, 022431081) for 5 minutes at room temperature under rotation. […] Precipitated integrins were detected by immunoblot analysis against his tag. Co-precipitated irisin was detected by immunoblot analysis against flag-tag.

B1: irisin: secreted cleaved form of FNDC5; recombinant human/mouse irisin with C-terminal his tag produced in HEK293 cells (protein)
chain: DSPSAPVNVTVRHLKANSAVVSWDVLEDEVVIGFAISQQKKDVRMLRFIQEVNTTTRSCALWDLEEDTEYIVHVQAISIQGQSPASEPVLFKTPREAEKMASKNKDEVTMKE
modifications: left off: small tags and cut ends
notes: secreted cleaved form of FNDC5; recombinant human/mouse irisin with C-terminal his tag produced in HEK293 cells
Consider B1, for which, in data set [1], the half-life in vivo entry is recorded as “less than an hour”. Moreover, the “concentration as low as which irisin prevented osteocyte cell death” value with MLO-Y4 cells (MLO-Y4, 0.3 mM H2O2, dose dependent) was 1 ng/ml and 70 pM. In addition, in the data set on MLO-Y4 cells (MLO-Y4, hydrogen peroxide), the “concentrations at which irisin reduced hydrogen peroxide-induced apoptosis” value was 1 to 500 ng/mL. The “extent of binding of irisin to integrin complex” value in the data set with integrin αV/β5 was “by far the highest extent of binding; also recorded: highest apparent affinity”.
